One block for each molecule: values may come before it.
Key:
[1] = molecular target: vitamin D3 hydroxylase (VDH) of Pseudonocardia autotrophica NBRC12743 strain (Pseudonocardia autotrophica) (UniProt C4B644); assay: cell-based or functional assay
[2] = molecular target: T1, ferredoxin (ThcC) derived from Rhodococcus erythropolis strain NI86/21, P43493
T1 chain: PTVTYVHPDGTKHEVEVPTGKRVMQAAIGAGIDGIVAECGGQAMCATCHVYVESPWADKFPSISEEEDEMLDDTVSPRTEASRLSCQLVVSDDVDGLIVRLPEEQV

[3] = molecular target: T2, vitamin D3 hydroxylase (VDH) of Pseudonocardia autotrophica NBRC12743 strain
T2 chain: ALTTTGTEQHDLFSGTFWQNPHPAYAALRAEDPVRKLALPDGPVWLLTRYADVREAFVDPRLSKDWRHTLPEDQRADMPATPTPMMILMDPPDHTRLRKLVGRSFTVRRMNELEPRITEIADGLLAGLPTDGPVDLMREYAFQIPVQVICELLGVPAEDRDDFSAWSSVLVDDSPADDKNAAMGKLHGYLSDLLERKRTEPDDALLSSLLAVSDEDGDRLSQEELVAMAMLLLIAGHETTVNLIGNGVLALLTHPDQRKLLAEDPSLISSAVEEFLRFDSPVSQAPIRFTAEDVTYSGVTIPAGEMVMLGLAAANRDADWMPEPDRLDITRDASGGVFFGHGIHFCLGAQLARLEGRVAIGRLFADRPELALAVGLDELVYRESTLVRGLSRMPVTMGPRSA

relative activity per expressed VDH, against the transformant expressing VDH solely [1]: 6 fold
Molecule: ferredoxin (ThcC) derived from Rhodococcus erythropolis strain NI86/21 (from UniProt P43493 2-107)

B1: vitamin D3 hydroxylase (VDH) of Pseudonocardia autotrophica NBRC12743 strain (protein)
chain: T2 chain
Activity (mmol/min/mol of VDH), VD3 conversion by Rhodococcus erythropolis transformant pTipQT-VDH-thcCD (mmol/min/mol of VDH) [2]: 119

B2: ferredoxin reductase (ThcD) derived from Rhodococcus erythropolis strain NI86/21 (protein)
chain: SIVIIGSGQAGFEAAVSLRSHGFSGTITLVGDEPGVPYQRPPLSKAYLHSDPDRESLALRPAQYFDDHRITLTCGKPVVRIDRDAQRVELIDATAIEYDHLILATGARNRLLPVPGANLPGVHYLRTAGEAESLTSSMASCSSLVVIGAGFIGLEVAAAARKKGLDVTVVEAMDRPMARALSSVMSGYFSTAHTEHGVHMRLSTGVKTINAADGRAAGVTTNSGDVIHADAVVVGIGVVPNIELAALTGLPVDNGIVVDEYLRTPDENISAIGDCAAYPIPGKAGLVRLESVQNAVDQARCLAAQLTGTSTHYRSVPWFWSEQYESKLQMAGLTAGADTHVVRGSVDSGVFSIFCFLGTRLLGVESVNKPRDHMAARKILATEMPLTPEQAADTDFDLKLAIARHKDTHKDEVASADIGERQVVAS
Activity (mmol/min/mol of VDH), VD3 conversion by Rhodococcus erythropolis transformant pTipQT-VDH-thcCD (mmol/min/mol of VDH) [3]: 119
relative activity per expressed VDH, against the transformant expressing VDH solely [3]: 6 fold
